T1: HMGA2 (UniProt P52926 1-109)
T1 sequence: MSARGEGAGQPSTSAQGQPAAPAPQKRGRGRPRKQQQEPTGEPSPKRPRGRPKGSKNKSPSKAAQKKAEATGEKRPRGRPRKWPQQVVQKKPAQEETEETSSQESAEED

B1: GST-NPM1 117-186 (domain or fragment, UniProt P06748 117-186, looked up)
chain: VAVEEDAESEDEEEEDVKLLSISGKRSAPGGGSKVPQKKVKLAADEDDDDDDEEDDDEDDDDDDFDDEEA
notes: also called central portion of NPM1 containing the two acidic clusters (A2 and A3)
B2: recombinant HMGA1a (natural protein, UniProt P17096-1 1-107, looked up)
chain: MSESSSKSSQPLASKQEKDGTEKRGRGRPRKQPPVSPGTALVGSQKEPSEVPTPKRPRGRPKGSKNKGAAKTRKTTTTPGRKPRGRPKKLEKEEEEGISQESSEEEQ
notes: HMGA1a, isoform of HMGA1 from alternative splicing
B3: E3 (dsDNA)
DNA 1: AGAAAAACTCCATCTAAAAAAAAAAAAAAAAAAAAAAAAAAACA
DNA 2: TGTTTTTTTTTTTTTTTTTTTTTTTTTTTAGATGGAGTTTTTCT
B4: recombinant HMGA1b (natural protein, UniProt P17096-2 1-96, looked up)
chain: MSESSSKSSQPLASKQEKDGTEKRGRGRPRKQPPKEPSEVPTPKRPRGRPKGSKNKGAAKTRKTTTTPGRKPRGRPKKLEKEEEEGISQESSEEEQ
notes: HMGA1b, isoform of HMGA1 from alternative splicing
B5: HCRII (dsDNA)
DNA 1: GACACATTAATCTATAATCAAATA
DNA 2: TATTTGATTATAGATTAATGTGTC

Experiments:
recombinant HMGA1a = target: B2; test: pull-down; GST-fused NPM1 forms as bait with recombinant HMGA proteins; bound proteins seen by western blot with anti-HMGA1 and anti-HMGA2 antibodies; conditions: both partners purified
recombinant HMGA1b = target: B4; test: as above; conditions: both partners purified
[1] = target: T2, GST-NPM1 1-295 (full length) (UniProt P06748 1-294); test: as above; conditions: both partners purified
T2 construct: nucleophosmin (NPM1), printed as full length (1-295); Plasmid provided by P.G. Pelicci; pGEX 4T3 GST-NPM1 1-295 is named as the PCR template; also called full-length GST-NPM1; GST-fused NPM1 full length (1-295); source: for EMSA eluted from Glutathione Sepharose 4B
T2 sequence (P06748 whole entry, the tested form may be a part): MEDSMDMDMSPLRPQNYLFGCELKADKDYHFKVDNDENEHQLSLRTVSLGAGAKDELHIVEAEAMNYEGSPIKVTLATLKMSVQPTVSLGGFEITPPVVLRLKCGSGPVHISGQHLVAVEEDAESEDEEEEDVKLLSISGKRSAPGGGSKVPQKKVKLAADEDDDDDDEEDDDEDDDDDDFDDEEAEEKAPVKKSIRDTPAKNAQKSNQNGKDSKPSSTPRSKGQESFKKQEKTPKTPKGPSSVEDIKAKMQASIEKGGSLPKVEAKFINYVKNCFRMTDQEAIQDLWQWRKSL

GST-NPM1 1-186 = target: T3, GST-NPM1 1-186 (UniProt P06748 1-186); test: as above; conditions: both partners purified
T3 construct: Plasmid provided by P.G. Pelicci

GST-NPM1 1-259 = target: T4, GST-NPM1 1-259 (UniProt P06748 1-259); test: as above; conditions: both partners purified
T4 construct: nucleophosmin (NPM1), residues 1-259; Plasmid provided by P.G. Pelicci
T4 sequence (P06748 1-259): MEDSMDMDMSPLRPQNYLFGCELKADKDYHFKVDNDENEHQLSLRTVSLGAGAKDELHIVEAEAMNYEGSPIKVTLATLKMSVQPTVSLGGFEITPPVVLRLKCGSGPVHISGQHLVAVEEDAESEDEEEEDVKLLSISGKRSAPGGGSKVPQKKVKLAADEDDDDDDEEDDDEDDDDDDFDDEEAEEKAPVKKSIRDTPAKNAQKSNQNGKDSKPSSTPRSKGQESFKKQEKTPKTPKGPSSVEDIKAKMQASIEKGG

HMGA1a [2] = target: T5, HMGA1a (UniProt P17096 1-107); test: EMSA; no NPM1; two complexes; EMSA: 4 pmol HMGA preincubated 10 min at 4°C with GST-NPM1/GST in 25 mM Tris/HCl pH 8, 5 mM GSH (8 uL); then 0.1 pmol DNA for 10 min in 180 mM NaCl, 1 mM MgCl2
HMGA1a [3] = target: T5, HMGA1a; test: EMSA; no NPM1; EMSA: 4 pmol HMGA preincubated 10 min at 4°C with GST-NPM1/GST in 25 mM Tris/HCl pH 8, 5 mM GSH (8 uL); then 0.1 pmol DNA for 10 min in 180 mM NaCl, 1 mM MgCl2
HMGA2 = target: T1, HMGA2; test: as above

| binding result [1] | binding result (GST-NPM1 1-186) | binding result (GST-NPM1 1-259) | Binder | other results |
| --- | --- | --- | --- | --- |
|  |  |  | B1 | binding result (recombinant HMGA1a): binds; binding result (recombinant HMGA1b): binds |
| binds | binds | binds | B2 |  |
|  |  |  | B3 | binding result (HMGA1a [2]): binds |
| binds | binds | binds | B4 |  |
|  |  |  | B5 | binding result (HMGA1a [3]): binds; binding result (HMGA2): binds |

— article PMC4339810 (Scientific Reports, 2015)
